± gives the uncertainty stated by the source.
assay: amyloid nucleation score (Sup35N fusion, yeast selection) (log enrichment); library NNK1; higher = more nucleation; inactive = no reads after selection
In short: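 Plasmid inserts were Illumina-sequenced at input and output from psi-negative yeast expressing Sup35N fused to peptides of 20 random codons. The yeast were induced with 100 μM copper sulfate for 24 hours and grown 7 days at 30°C on medium lacking adenine and uracil, and sequences with under 100 input reads were excluded. Nucleation score is the DiMSum log enrichment of output over input reads, centred on the mode score of non-aggregating sequences.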

TQRVIGERRMNADCRACRLR and TRCPV are within error of each other in amyloid nucleation score: -0.061 ± 1.6 for the first, 0.253 ± 0.66 for the second.

TRHWVIRQVSSTRDKYTKHA and TRLLRVGRSNFSLNEHSDRI are within error of each other in amyloid nucleation score: 0.217 ± 0.66 for the first, -0.376 ± 0.9 for the second.

TRLRTYKCLQMGDYHVSSFK and TRNSDNVWKFEGVFHNLETW are within error of each other in amyloid nucleation score: 0.672 ± 0.79 for the first, 0.43 ± 0.48 for the second.

TRSGYAHARSSAAQSFTL and TRTKSGFSLYVRR are within error of each other in amyloid nucleation score: 0.622 ± 0.33 for the first, 1.1 ± 0.71 for the second.

TRVSFYRSKFAFMFYYHVMV and TRWLILWNLAGPTGCYFRIL are within error of each other in amyloid nucleation score: 0.099 ± 0.79 for the first, 0.063 ± 0.63 for the second.

TSAGKYHSSIILLYLWDYVT and TSALWEVLW are within error of each other in amyloid nucleation score: 0.845 ± 0.41 for the first, 0.191 ± 0.58 for the second.

TSDNGKNAQGWGM and TSGIYRRSDFLERHIS are within error of each other in amyloid nucleation score: 0.145 ± 1 for the first, 0.993 ± 0.71 for the second.

Going from TSLCCSYWFSSVIGFSGYCG to TSLYQAYSIYSFRYYIAYMC, the amyloid nucleation score falls from 1.89 ± 0.28 to 0.232 ± 0.68.

TSPPSKIAVRCGWDSMSLR and TSRRAEYRWSYQEKSGSSRS are within error of each other in amyloid nucleation score: 0.309 ± 0.6 for the first, 1.26 ± 0.45 for the second.

TSSSRSIDR and TSVHDRQELRDRLV are within error of each other in amyloid nucleation score: 0.16 ± 0.35 for the first, 0.69 ± 0.32 for the second.

Compared with TTKAVRCYRNIMCSTILGRS, TTNMRLFLLYNTTLVMSFNV is higher in amyloid nucleation score: -0.015 ± 0.31 for the first, 1.88 ± 0.16 for the second.

Going from TTRMRRRY to TTRSSGIFSDEGKQACSDRG, the amyloid nucleation score falls from 1.89 ± 0.56 to 0.091 ± 0.74.

TTSYHTNGRAVRIVYPFANS and TTVGNVFSGVHV are within error of each other in amyloid nucleation score: -0.096 ± 0.6 for the first, 0.027 ± 1.7 for the second.

TTVRGASANHVLTCYCPHYL and TTYHCGP are within error of each other in amyloid nucleation score: 0.601 ± 0.82 for the first, 0.039 ± 1.5 for the second.

Compared with TVAGVR, TVDVPLAASSNKYKFMFYCE is higher in amyloid nucleation score: 0.174 ± 0.4 for the first, 3.92 ± 0.098 for the second.

TVFMVKDRVILRFGRGLKAW and TVKDNHVLEEFVTFYVVYKS are within error of each other in amyloid nucleation score: -1.09 ± 1.1 for the first, -0.013 ± 0.27 for the second.

TVLFV and TVLIILRALLNSSPKTFD are within error of each other in amyloid nucleation score: 0.298 ± 0.38 for the first, 0.387 ± 0.22 for the second.

Going from TVLPF to TVLWWSSGDSGSCWYYCKIE, the amyloid nucleation score falls from 1.6 ± 0.55 to -0.177 ± 0.31.

TVMSNHGHLMKYYFVRLEGF and TVNRG are within error of each other in amyloid nucleation score: 0.759 ± 0.62 for the first, 0.409 ± 1.4 for the second.

Going from TVNVFFLQACSRSC to TVRGGLY, the amyloid nucleation score falls from 7.73 ± 0.06 to -1.04 ± 0.62.

Compared with TVTDYKTYASLLFGTKTYAI, TVTGFMF is lower in amyloid nucleation score: 2.17 ± 0.47 for the first, -0.645 ± 1.7 for the second.

TWCCEVNAAVEHG and TWCTV are within error of each other in amyloid nucleation score: -1.17 ± 1.1 for the first, 0.082 ± 0.28 for the second.

TWIEDCSYYEMYTGPERTLT and TWNTL are within error of each other in amyloid nucleation score: -0.282 ± 0.46 for the first, -0.343 ± 0.4 for the second.

Going from TWNVMYRIRF to TWRFVFCFFWTRGPRLLICA, the amyloid nucleation score falls from 2.04 ± 0.23 to -0.768 ± 0.37.

TWRLDIFGGRRGRVASRKKW and TWTLL are within error of each other in amyloid nucleation score: -0.076 ± 0.96 for the first, 1.18 ± 0.63 for the second.

TWWCV and TYEPKGRLPCWCSAQSMGCL are within error of each other in amyloid nucleation score: -0.285 ± 0.27 for the first, -0.096 ± 0.34 for the second.

Compared with TYHFCLFMSYSGSNRAALCN, TYMTSTMQLRHTFFRSQANL is higher in amyloid nucleation score: -0.212 ± 1 for the first, 2.7 ± 0.098 for the second.

First: TYNCILNSCSSSYTKVLV
Second: TYNYFCGLVIVVVNGVHLRV
The amyloid nucleation score of the first is lower: 0.703 ± 0.24 for the first, 5.507 ± 0.047 for the second.

TYPYFDWPFRTRRLMEVSET and TYTCPVGNWVRMEGDLYFLA are within error of each other in amyloid nucleation score: -0.4 ± 0.63 for the first, -0.847 ± 1.3 for the second.

First: TYVCDMEHSVYCYYVEAQLY
Second: TYWEMVHWGQEASMGSIRRR
The amyloid nucleation score of the first is lower: 0.49 ± 0.4 for the first, 1.97 ± 0.24 for the second.

VAASFCYIYRRYPSLFLGSR and VACLKRW are within error of each other in amyloid nucleation score: 0.422 ± 0.53 for the first, -0.29 ± 0.42 for the second.

VACNIGHSYVNYYCRGIILC and VAEWRSMNVGVGRATIEGLS are within error of each other in amyloid nucleation score: 0.586 ± 0.4 for the first, 0.579 ± 0.28 for the second.

VALDSSLHTSVYRIVSLSIG and VALLKWFRIWVSFANCLWGR are within error of each other in amyloid nucleation score: -0.159 ± 0.52 for the first, 0.128 ± 0.99 for the second.

First: VASYFGLVRNSNLDLYLHCR
Second: VAYRVFCD
The amyloid nucleation score of the first is lower: -0.131 ± 0.23 for the first, 0.51 ± 0.36 for the second.

Going from VCCSATISTIVFSYFYTGKR to VCILFSAPDNMWFFSD, the amyloid nucleation score falls from 7.506 ± 0.053 to 1.49 ± 0.45.

Going from VCTNRYGPCSPS to VCVHDLCSLIQLGAYVMRET, the amyloid nucleation score falls from 4.26 ± 0.09 to 0.383 ± 0.29.

VCVWCKISPSTYCALIFGDL and VDIKFFMGLAFMWRYSSTAD are within error of each other in amyloid nucleation score: -0.181 ± 0.32 for the first, -0.063 ± 0.39 for the second.

VDMNWVITGTNWEFRLRVDA and VDNDLGQLPGMW are within error of each other in amyloid nucleation score: 0.24 ± 0.43 for the first, -0.561 ± 1.7 for the second.

First: VDNIYAGVELLFSCKM
Second: VDNVRPWRGYQPHSLVLPIV
The amyloid nucleation score of the first is lower: -0.331 ± 0.28 for the first, 0.516 ± 0.47 for the second.

For TRNVQHRIRSKSTISDKQIF, the amyloid nucleation score was “inactive”.
For TSASYRADVWDDGNVLYRLW, the amyloid nucleation score was “inactive”.
With TSELNSYSTCFHSDGLSMNR the amyloid nucleation score was “inactive”.
With TSSRCRYMFFLRHIFCKILK the amyloid nucleation score was “inactive”.
In the case of TVNTYSANDYVRTMVCELSV, the amyloid nucleation score is reported as “inactive”.
In the case of VACRRTSKGEYYFQSMICDL, the amyloid nucleation score is reported as “inactive”.
With VCYVAMLNHTSPMSLASSAR the amyloid nucleation score was “inactive”.

— the supplement of paper PMC12042874
